Where “and” joins values, the source holds several entries; their conditions need not be identical. Equal values may be shown once. Values belong to the substance of their own block, whether it stands above or below them.
Assays:
[1] = biological target: monoclonal antibody cmHsp70.1 as produced by hybridoma cmHsp70.1 (DSM ACC2629); test: flow cytometry at 4 C, CT26 cells, cmHsp70.1-FITC 5 µg/mL plus TKD 12.5 µg/mL
[2] = biological target: monoclonal antibody cmHsp70.1 as produced by hybridoma cmHsp70.1 (DSM ACC2629); test: flow cytometry at 4 C, CT26 cells, cmHsp70.1-FITC 5 µg/mL plus TKD 25 µg/mL
[3] = biological target: theta antigen on BW mouse tumor cells; test: staining of BW mouse cells transfected with theta (method not given)
[4] = biological target: membrane Hsp70 on mouse tumor cells (mouse) (UniProt Q61696); test: flow cytometry, CT26 cells used as ADCC targets (FIG. 9A)
Sequence of UniProt Q61696 (Q61696 2-641): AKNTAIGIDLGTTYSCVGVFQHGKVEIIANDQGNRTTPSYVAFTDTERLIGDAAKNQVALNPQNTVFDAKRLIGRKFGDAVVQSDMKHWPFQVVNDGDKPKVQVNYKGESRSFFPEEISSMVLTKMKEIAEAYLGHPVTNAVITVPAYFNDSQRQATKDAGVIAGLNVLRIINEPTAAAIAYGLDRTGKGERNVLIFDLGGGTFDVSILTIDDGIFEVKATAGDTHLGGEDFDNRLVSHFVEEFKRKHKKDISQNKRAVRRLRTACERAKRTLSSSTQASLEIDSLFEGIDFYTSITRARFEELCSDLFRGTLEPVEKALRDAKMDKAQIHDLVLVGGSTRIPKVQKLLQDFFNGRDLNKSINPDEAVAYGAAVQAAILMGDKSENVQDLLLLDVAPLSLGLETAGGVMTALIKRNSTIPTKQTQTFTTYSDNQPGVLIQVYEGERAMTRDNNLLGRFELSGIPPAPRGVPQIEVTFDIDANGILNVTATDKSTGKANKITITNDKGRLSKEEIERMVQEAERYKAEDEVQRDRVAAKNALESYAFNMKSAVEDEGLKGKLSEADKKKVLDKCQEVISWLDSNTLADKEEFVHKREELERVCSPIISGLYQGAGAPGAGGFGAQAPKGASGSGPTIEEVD

[5] = biological target: membrane Hsp70 on mouse tumor cells (mouse) (UniProt Q61696); test: flow cytometry at 4 C, viable 1048 (BALB/c) pancreatic carcinoma cells (counted as membrane Hsp70 negative, limit 15%)
[6] = biological target: membrane Hsp70 on mouse tumor cells (mouse) (UniProt Q61696); test: flow cytometry at 4 C, viable ADJ (BALB/c) plasmocytoma cells
[7] = biological target: membrane Hsp70 on mouse tumor cells (mouse) (UniProt Q61696); test: flow cytometry, CT26 cells from tissue culture; antibody not named
[8] = biological target: purified human Hsp70 protein (human) (UniProt P0DMV8); test: SPR, Biacore X, 25 C, Hsp70 0.78-50 nM, global fit to a 1:1 model
Sequence of UniProt P0DMV8 (P0DMV8 whole entry): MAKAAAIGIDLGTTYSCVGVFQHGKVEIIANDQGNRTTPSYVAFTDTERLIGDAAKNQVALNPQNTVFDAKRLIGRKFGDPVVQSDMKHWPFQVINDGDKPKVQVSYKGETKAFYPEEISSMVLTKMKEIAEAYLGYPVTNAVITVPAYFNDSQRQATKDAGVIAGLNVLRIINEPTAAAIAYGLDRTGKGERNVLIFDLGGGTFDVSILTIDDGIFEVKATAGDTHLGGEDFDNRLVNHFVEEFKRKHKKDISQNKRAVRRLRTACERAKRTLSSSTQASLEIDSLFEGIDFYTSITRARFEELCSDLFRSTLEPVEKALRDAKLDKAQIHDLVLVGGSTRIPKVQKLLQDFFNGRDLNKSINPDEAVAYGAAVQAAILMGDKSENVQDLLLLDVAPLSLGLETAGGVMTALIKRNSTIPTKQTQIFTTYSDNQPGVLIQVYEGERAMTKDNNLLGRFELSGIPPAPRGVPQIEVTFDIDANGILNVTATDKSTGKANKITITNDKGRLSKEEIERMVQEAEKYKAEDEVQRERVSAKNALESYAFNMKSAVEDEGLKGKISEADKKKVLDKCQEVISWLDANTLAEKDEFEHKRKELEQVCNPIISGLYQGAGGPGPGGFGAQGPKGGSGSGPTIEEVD

[9] = biological target: membrane Hsp70 on mouse tumor cells (mouse) (UniProt Q61696); test: flow cytometry, CT26 cells used as ADCC targets (FIG. 8)
[10] = biological target: membrane Hsp70 on mouse tumor cells (mouse) (UniProt Q61696); test: flow cytometry at 4 C, viable B16/F10 (C57/Bl6) melanoma cells
[11] = biological target: membrane Hsp70 on mouse tumor cells (mouse) (UniProt Q61696); test: flow cytometry at 4 C, viable CT26 (BALB/c) colon carcinoma cells
[12] = biological target: membrane Hsp70 on mouse tumor cells (mouse) (UniProt Q61696); test: flow cytometry, CT26 cells used as ADCC targets (FIG. 9B)
[13] = biological target: membrane Hsp70 on mouse tumor cells (mouse) (UniProt Q61696); test: flow cytometry at 4 C, viable MOS162 (C3H) osteosarcoma cells
[14] = biological target: membrane Hsp70 on mouse tumor cells (mouse) (UniProt Q61696); test: flow cytometry, cmHsp70.1-FITC on viable CT26 mouse colon carcinoma cells; IgG1 isotype control as white histogram
[15] = biological target: membrane Hsp70 on mouse tumor cells (mouse) (UniProt Q61696); test: flow cytometry, single cell suspensions of CT26 tumors from mice on day 14; antibody not named
[16] = biological target: membrane Hsp70 on mouse tumor cells (mouse) (UniProt Q61696); test: flow cytometry at 4 C, viable A20 (BALB/c) B cell lymphoma cells (counted as membrane Hsp70 negative, limit 15%)
[17] = biological target: membrane Hsp70 on mouse tumor cells (mouse) (UniProt Q61696); test: flow cytometry, cultured CT26 cells; antibody not named
[18] = biological target: membrane Hsp70 on mouse tumor cells (mouse) (UniProt Q61696); test: cell-based or functional assay
[19] = biological target: membrane Hsp70 on mouse tumor cells (mouse) (UniProt Q61696); test: flow cytometry, single-cell suspensions of CT26 tumors from mice on day 14; antibody not named
[20] = biological target: membrane Hsp70 on mouse tumor cells (mouse) (UniProt Q61696); test: flow cytometry at 4 C, CT26 cells, cmHsp70.1-FITC 5 µg/mL without peptide

- membrane Hsp70+ cells (%) left in the presence of the peptide [1]: 44%
- membrane Hsp70+ cells (%) left in the presence of the peptide [2]: < 15%
Substance: 14-mer Hsp70 peptide TKD (…)

- positive cells (%) [3]: 56%
Substance: IgG1 O×7.11 mAb (antibody)

- membrane Hsp70+ cells (%) [4]: 60%
- Hsp70 membrane positive cells (%) [7]: 56.2%
- Kd [8]: 5.4 nM
- koff [8]: 0.000379 s⁻¹
- kon [8]: 69900 M⁻¹ s⁻¹
- Hsp70 membrane-positive cells (%) [9]: 55%
- cmHsp70.1+ cells (%) [12]: 61%
- Hsp70 membrane positive cells (%) [15]: 79.8%
- membrane Hsp70+ cells (%) [17]: 46.2%
- ADCC against CT26 tumor cells (4 h 51Cr release, unstimulated mouse spleen cells) [18]: 1.4 µg/mL
- membrane Hsp70+ cells (%) [19]: 69.8%
- membrane Hsp70+ cells (%) [20]: 59% and 60%
Substance: monoclonal antibody cmHsp70.1 as produced by hybridoma cmHsp70.1 (DSM ACC2629)
- Hsp70 membrane-positive cells (%) [5]: 12%
- Hsp70 membrane-positive cells (%) [6]: 45%
- Hsp70 membrane-positive cells (%) [10]: 97%
- Hsp70 membrane-positive cells (%) [11]: 44%
- Hsp70 membrane-positive cells (%) [13]: 70%
- positive cells in the marker gate [14]: 59%
- Hsp70 membrane-positive cells (%) [16]: 5%
